Assays:
Cyno NKG2D-mFc = target: T1, Cyno NKG2D-mFc (cynomolgus monkey, UniProt P61252 78-216, limits assumed); experiment: SPR, NKG2D-mFc captured, 37C, pH 7.4
T1 construct: also called cynomolgus NKG2D fused to a mouse Fc
T1 sequence (looked up): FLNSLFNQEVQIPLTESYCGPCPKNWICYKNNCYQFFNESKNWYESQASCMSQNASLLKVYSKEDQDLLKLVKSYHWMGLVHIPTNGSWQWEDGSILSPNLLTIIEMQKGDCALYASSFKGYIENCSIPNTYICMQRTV
Protocol: (§1) Binding to NKG2D was assessed by SPR using a mouse Fc capture kit (Cytiva, #BR100838) immobilized onto a CM5 chip. Human and cynomolgus NKG2D fused to a mouse Fc were captured and AB0411, AB0466, or AB0621 was titrated from 600 nM.

[1] = target: T2, soluble mouse Fc-human NKG2D dimer (human, UniProt P26718 78-216, limits assumed); experiment: SPR, NKG2D-mFc captured, 37C, pH 7.4
T2 construct: also called NKG2D-mFc; human NKG2D fused to a mouse Fc
T2 sequence (looked up): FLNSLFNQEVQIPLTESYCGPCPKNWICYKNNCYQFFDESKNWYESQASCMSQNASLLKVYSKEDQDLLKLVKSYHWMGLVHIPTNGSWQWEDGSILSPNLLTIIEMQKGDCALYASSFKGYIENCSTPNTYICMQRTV
Protocol: as §1

human CEACAM5 on cells = target: T3, human CEACAM5 on cells (human, UniProt P06731 35-685); experiment: flow cytometry, MKN-45 cells
T3 construct: tumour cell lines with endogenous CEACAM5, or B16F10 engineered to express hCEACAM5; also called CEACAM5 on MKN-45, HPAF-II, SK-CO-1, LoVo, BxPC-3, Kato-III, LS-174T, ZR-75-30; hCEACAM5-B16F10
T3 sequence: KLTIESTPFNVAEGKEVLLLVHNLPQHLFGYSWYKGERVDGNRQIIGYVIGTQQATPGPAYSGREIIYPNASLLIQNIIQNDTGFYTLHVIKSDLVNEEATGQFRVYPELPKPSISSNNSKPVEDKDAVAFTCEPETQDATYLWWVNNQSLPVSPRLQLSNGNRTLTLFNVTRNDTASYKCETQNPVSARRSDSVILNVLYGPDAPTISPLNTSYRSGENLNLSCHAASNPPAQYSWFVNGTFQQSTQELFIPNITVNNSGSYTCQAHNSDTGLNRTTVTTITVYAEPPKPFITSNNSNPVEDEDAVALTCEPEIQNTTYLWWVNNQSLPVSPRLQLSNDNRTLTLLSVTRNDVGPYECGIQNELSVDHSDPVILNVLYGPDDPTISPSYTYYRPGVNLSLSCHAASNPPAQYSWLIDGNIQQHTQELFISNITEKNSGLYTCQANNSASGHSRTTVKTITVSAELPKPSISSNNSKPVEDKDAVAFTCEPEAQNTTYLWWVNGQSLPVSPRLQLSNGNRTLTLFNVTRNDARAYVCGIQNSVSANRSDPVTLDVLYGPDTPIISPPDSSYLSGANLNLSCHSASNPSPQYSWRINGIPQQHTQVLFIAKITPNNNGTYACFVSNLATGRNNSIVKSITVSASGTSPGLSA
Protocol: MKN-45 and HPAF-II human cancer cell lines were diluted into FACS buffer and 100,000 cells of each cell type were seeded per well in duplicate into 96-well plates for FACS staining. The cells were washed with PBS, incubated in a 1:2000 dilution of live/dead dye in PBS for 15 minutes, and then washed with FACS buffer. AB0264, AB0411, AB0466, and AB0621 were diluted into FACS buffer, and 50 μl of each diluted TriNKET was added to the cells. After incubation on ice for 30-120 minutes, the cells were washed with FACS buffer. Anti-human IgG-Fc secondary antibody was diluted into FACS buffer, and 50 μl was added per well for detection of the bound TriNKETs. The cells were incubated for 30-60 minutes on ice and then washed with FACS buffer. 50 μl of fixation buffer was added to each well and the cells were incubated for 10 minutes at room temperature. The cells were washed with FACS buffer and resuspended in FACS buffer for analysis with ThermoFisher Attune NxT, BD FACS Celesta SN #H66034400085, or BD FACS Celesta SN #H66034400160.

CEACAM5 N-A1-B1-His = target: T4, CEACAM5 N-A1-B1-His (human, UniProt P06731 35-322, limits assumed); experiment: SPR, Fab capt, 25C
T4 sequence: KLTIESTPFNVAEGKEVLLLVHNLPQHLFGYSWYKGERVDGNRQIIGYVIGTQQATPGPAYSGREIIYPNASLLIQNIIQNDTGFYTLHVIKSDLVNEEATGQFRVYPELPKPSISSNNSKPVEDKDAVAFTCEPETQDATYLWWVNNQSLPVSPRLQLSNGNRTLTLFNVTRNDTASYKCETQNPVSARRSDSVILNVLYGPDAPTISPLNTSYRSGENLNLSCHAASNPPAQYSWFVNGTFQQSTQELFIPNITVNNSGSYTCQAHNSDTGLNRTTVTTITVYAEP
Protocol: If the protein domain was an Fc fusion, AB0411, AB0466, AB0264, or AB0621 were captured using an anti-human Fab antibody (Cytiva, #28958325) immobilized onto a CM5 chip. The various hCEACAM5 protein domains (N-term, A1-B1, A2, B2, A3, or B3) were titrated over the captured TriNKETs at 50 μL/min for 180 sec of association and 300 sec of dissociation. The assay was run at 25° C. in HBS-EP+ running buffer, pH 7.4. The surface of the CM5 chip was regenerated using […] glycine pH 2.1.

Human CEACAM5 (E398) = target: T5, Human CEACAM5 (E398) (human, UniProt P06731 35-685, limits assumed); experiment: SPR, anti-hFc capture, 37C, pH 6.0
T5 construct: also called hCEACAM5
T5 sequence: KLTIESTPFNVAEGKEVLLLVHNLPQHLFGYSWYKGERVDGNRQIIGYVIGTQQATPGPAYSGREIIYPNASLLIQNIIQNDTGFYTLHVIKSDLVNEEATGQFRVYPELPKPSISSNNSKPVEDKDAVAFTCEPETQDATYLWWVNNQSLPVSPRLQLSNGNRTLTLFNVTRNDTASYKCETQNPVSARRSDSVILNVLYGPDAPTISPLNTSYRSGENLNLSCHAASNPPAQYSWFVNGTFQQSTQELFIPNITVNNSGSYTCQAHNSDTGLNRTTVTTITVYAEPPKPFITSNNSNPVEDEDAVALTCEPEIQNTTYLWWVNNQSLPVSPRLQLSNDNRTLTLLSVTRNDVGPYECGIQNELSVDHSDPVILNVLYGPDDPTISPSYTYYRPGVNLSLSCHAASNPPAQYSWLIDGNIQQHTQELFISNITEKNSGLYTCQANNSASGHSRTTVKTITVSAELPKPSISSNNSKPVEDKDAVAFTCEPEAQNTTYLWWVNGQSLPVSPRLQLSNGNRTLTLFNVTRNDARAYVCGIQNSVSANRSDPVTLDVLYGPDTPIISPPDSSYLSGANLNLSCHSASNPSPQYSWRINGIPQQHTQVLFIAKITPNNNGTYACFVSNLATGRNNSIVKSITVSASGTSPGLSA
Protocol: To determine the affinity and cross-reactivity of CEACAM5 TriNKET molecules, AB0411, AB0466, or AB0621 TriNKETs were captured using an anti-human Fc capture antibody (Cytiva, #BR100839) immobilized onto a Biacore CM5 standard surface sensor chip following manufacturer instructions. Human or cynomolgus CEACAM5 were titrated over captured AB0411, AB0466, and AB0621 as 2-fold serial dilutions starting from 300 nM. Association was monitored for 300 sec and dissociation was monitored for 600 sec. The assay was run at 37° C. at pH 7.4 and 6.0. The surface of the CM5 chip was regenerated with 10 mM glycine pH 1.5 for 20 sec at 100 μL/min.

| Binder | Kd (Cyno NKG2D-mFc) | koff (Cyno NKG2D-mFc) | kon (Cyno NKG2D-mFc) | Kd [1] | koff [1] | kon [1] | EC50 (human CEACAM5 on cells) | Max FOB (human CEACAM5 on cells) | Kd (CEACAM5 N-A1-B1-His) | kon (CEACAM5 N-A1-B1-His) | Kd (Human CEACAM5 (E398)) | kon (Human CEACAM5 (E398)) |
| --- | --- | --- | --- | --- | --- | --- | --- | --- | --- | --- | --- | --- |
| AB0621 F3' CEACAM5 TriNKET (bispecific antibody, human IgG1, kappa) DIVMTQSPDSLAVSLGERATINCKSSHSLLYGNFQNNYLAWYQQKPGQPPKLLIYWASTRESGVPDRFSGSGSGTDFTLTISSLQAEDVAVYYCQQYYSYPYTFGCGTKLEIKGGGGSGGGGSGGGGSGGGGSQVQLVQSGAEVKKPGASVKVSCKASGYTFTAYTIHWVRQAPGQCLEWMGYINPSSGYTEYNQKFKDRTTLTADTSISTAYMELSRLRSDDTAVYYCTREGGLLWFDYWGQGTLVTVSSGSDKTHTCPPCPAPELLGGPSVFLFPPKPKDTLMISRTPEVTCVVVDVSHEDPEVKFNWYVDGVEVHNAKTKPREEQYNSTYRVVSVLTVLHQDWLNGKEYKCKVSNKALPAPIEKTISKAKGQPREPRVYTLPPCRDELTKNQVSLTCLVKGFYPSDIAVEWESNGQPENNYKTTPPVLVSDGSFTLYSKLTVDKSRWQQGNVFSCSVMHEALHNHYTQKSLSLSPG heavy: EVQLVESGGGLVKPGGSLRLSCAASGFTFSSYSMNWVRQAPGKGLEWVSSISSSSSYIYYADSVKGRFTISRDNAKNSLYLQMNSLRAEDTAVYYCARGAPIGAAAGWFDPWGQGTLVTVSSASTKGPSVFPLAPSSKSTSGGTAALGCLVKDYFPEPVTVSWNSGALTSGVHTFPAVLQSSGLYSLSSVVTVPSSSLGTQTYICNVNHKPSNTKVDKKVEPKSCDKTHTCPPCPAPELLGGPSVFLFPPKPKDTLMISRTPEVTCVVVDVSHEDPEVKFNWYVDGVEVHNAKTKPREEQYNSTYRVVSVLTVLHQDWLNGKEYKCKVSNKALPAPIEKTISKAKGQPREPQVCTLPPSRDELTENQVSLTCLVKGFYPSDIAVEWESNGQPENNYKTTPPVLDSDGSFFLYSWLTVDKSRWQQGNVFSCSVMHEALHNHYTQKSLSLSPG light: DIQMTQSPSSVSASVGDRVTITCRASQGISSWLAWYQQKPGKAPKLLIYAASSLQSGVPSRFSGSGSGTDFTLTISSLQPEDFATYYCQQGVSFPRTFGGGTKVEIKRTVAAPSVFIFPPSDEQLKSGTASVVCLLNNFYPREAKVQWKVDNALQSGNSQESVTEQDSKDSTYSLSSTLTLSKADYEKHKVYACEVTHQGLSSPVTKSFNRGEC | 520 nM | 0.12 s⁻¹ | 320000 M⁻¹ s⁻¹ | 570 nM | 0.14 s⁻¹ | 320000 M⁻¹ s⁻¹ | 20.6 nM | 51.3 fold over background | 1.8 nM | 350000 M⁻¹ s⁻¹ | 14 nM | 140000 M⁻¹ s⁻¹ |
| AB0264 F3' CEACAM5 TriNKET (bispecific antibody, human IgG1, kappa) DIVMTQSPDSLAVSLGERATINCKSSHSLLYGNFQNNYLAWYQQKPGQPPKLLIYWASTRESGVPDRFSGSGSGTDFTLTISSLQAEDVAVYYCQQYYSYPYTFGCGTKLEIKGGGGSGGGGSGGGGSGGGGSQVQLVQSGAEVKKPGASVKVSCKASGYTFTAYTIHWVRQAPGQCLEWMGYINPSSGYTEYNQKFKDRTTLTADTSIPTAYMELSRLRSDDTAVYYCTREGGLLWFDYWGQGTLVTVSSGSDKTHTCPPCPAPELLGGPSVFLFPPKPKDTLMISRTPEVTCVVVDVSHEDPEVKFNWYVDGVEVHNAKTKPREEQYNSTYRVVSVLTVLHQDWLNGKEYKCKVSNKALPAPIEKTISKAKGQPREPRVYTLPPCRDELTKNQVSLTCLVKGFYPSDIAVEWESNGQPENNYKTTPPVLVSDGSFTLYSKLTVDKSRWQQGNVFSCSVMHEALHNHYTQKSLSLSPG heavy: EVQLVESGGGLVKPGGSLRLSCAASGFTFSSYSMNWVRQAPGKGLEWVSSISSSSSYIYYADSVKGRFTISRDNAKNSLYLQMNSLRAEDTAVYYCARGAPIGAAAGWFDPWGQGTLVTVSSASTKGPSVFPLAPSSKSTSGGTAALGCLVKDYFPEPVTVSWNSGALTSGVHTFPAVLQSSGLYSLSSVVTVPSSSLGTQTYICNVNHKPSNTKVDKKVEPKSCDKTHTCPPCPAPELLGGPSVFLFPPKPKDTLMISRTPEVTCVVVDVSHEDPEVKFNWYVDGVEVHNAKTKPREEQYNSTYRVVSVLTVLHQDWLNGKEYKCKVSNKALPAPIEKTISKAKGQPREPQVCTLPPSRDELTENQVSLTCLVKGFYPSDIAVEWESNGQPENNYKTTPPVLDSDGSFFLYSWLTVDKSRWQQGNVFSCSVMHEALHNHYTQKSLSLSPG light: DIQMTQSPSSVSASVGDRVTITCRASQGISSWLAWYQQKPGKAPKLLIYAASSLQSGVPSRFSGSGSGTDFTLTISSLQPEDFATYYCQQGVSFPRTFGGGTKVEIKRTVAAPSVFIFPPSDEQLKSGTASVVCLLNNFYPREAKVQWKVDNALQSGNSQESVTEQDSKDSTYSLSSTLTLSKADYEKHKVYACEVTHQGLSSPVTKSFNRGEC |  |  |  |  |  |  | 24.6 nM | 55 fold over background | 1.1 nM | 410000 M⁻¹ s⁻¹ |  |  |
